Data published in patent US20250257112A1 (SHIRE NPS PHARMACEUTICALS, published 2025).

Biological target: PTH receptor ("PTHIR")
Test: cell-based or functional assay

B1: PTH(1-84) (ligand)
chain: SVSEIQLMHNLGKHLNSMERVEWLRKKLQDVHNFVALGAPLAPRDAGSQRPRKKEDNVLVESHEKSLGEADKADVNVLTKAKSQ
- cAMP potency (EC50): 0.24 nM
